Key:
human Gal3 = biological target: T1, human Gal3 (Homo sapiens, UniProt P17931); test: Epitope binning, sandwich format, SPR Carterra LSA (Example 8); format: binding
T1 construct: 6xHis (linker-spaced) (C); purchased AcroBio (Acro Biosystems) GA3-H5129
Experimental: The epitope binning assay was done in a sandwich format on the high-throughput SPR-based Carterra LSA unit (CarterraBio, Salt Lake City, Utah). First, the purified antibodies were diluted to 10 μg/ml concentration in 10 mM NaOAc (pH 5.0) and then were covalently coupled via amine group to HC200M chip activated by EDC and S-NHS to immobilize antibodies to different positions of a 384-spot array. One hundred thirty-eight binning cycles were run on the array of immobilized antibodies. In each cycle, first, human Gal3 (AcroBio GA3-H5129) was injected over the entire array to bind to different antibodies (primary antibody), followed by one antibody (secondary antibody) selected among the panel of 150 anti-GAL3 antibodies tested. At the end of each cycle, the array was regenerated by 10 mM Glycine (pH 2.0) to remove bound antigen and secondary antibody from the array. The data analysis was done using the Epitope software by CarterraBio.

Human Gal3 peptides = test: Gal3 peptide binding ELISA (Example 8); conditions: antibody 5 μg/mL
Experimental: Gal3 peptide binding activity of additional exemplary anti-Gal3 antibodies was assessed with the same peptides as described in FIG. 18 (SEQ ID NOs: 3-26). Human Gal3 peptides (LifeTein, custom order) and human Gal3 proteins (R&D Systems, 8259-GA; TrueBinding, QCB200349) were diluted in PBS (Corning, 21-030-CM) to concentrations of at least 100 μg/mL (peptides) or 1 μg/mL (proteins), and added to the wells of several 96-well ELISA plates (Thermo Fisher, 44-2404-21). After incubating the plates at 4° C. overnight, the plates were washed three times with PBST (PBS with 0.05% Tween 20 [VWR, 0777]). The plates were then blocked for an hour with 2% BSA (EMD Millipore, 126609) in PBST at room temperature with gentle rocking. Thereafter, the 2% BSA in PBST was discarded and Gal3-binding antibodies (reformatted hIgG4 [S228P]) were diluted in 2% BSA in PBST to concentrations of 5 μg/mL and added to the wells. The plates were incubated for an hour at room temperature with gentle rocking and then washed three times with PBST. Afterwards, Peroxidase AffiniPure F(ab′)2 Fragment Goat Anti-Human IgG (H+L) polyclonal antibody (Jackson ImmunoResearch, 109-036-003), was diluted in 2% BSA in PBST (1:4000) and added to the wells. The plates were incubated for 1 hour at room temperature with gentle rocking and then washed three times with PBST. TMB substrate (Thermo Scientific, 34029) was then added to each well. The reaction was stopped with 1M HCl (JT Baker, 5620-02) and read using a plate reader (Molecular Devices) at absorbance of 450 nm.

[1] = tested on: GLUT4 translocation in L6 GLUT4myc myoblasts; test: Insulin-stimulated GLUT4 translocation with Gal3 and anti-Gal3 antibody; format: cell-based, rat; conditions: 30 μg/mL Gal3 pre-incubated with 60 μg/mL antibody, 100 nM insulin
Experimental: Rat L6 GLUT4myc myoblasts (Kerafast #ESK202-FP) express a Myc-tagged GLUT4 that can be detected with an anti-Myc antibody. These cells were grown in a 48-well plate in MEM u growth media (Gibco, #12-571-063)+10% fetal bovine serum (FBS; Corning #35-016-CV) until 90-95% confluence was reached. Cells were then washed in PBS and serum starved for 2 hours in MEM u growth media without FBS. Thirty (30) μg/mL recombinant human Gal3 (TrueBinding QCB200347) was pre-incubated with 60 μg/mL anti-Gal3 antibodies for 30 minutes before being added to the serum-starved cells for 1 hour at 37° C. At the end of incubation, half of the cells were treated with 100 nM insulin (Sigma-Aldrich #I5523-50MG) for 20 minutes while the other half acted as basal controls. After 20 minutes, cells were washed quickly with ice cold PBS twice, then incubated with 4% paraformaldehyde (Boster Bio #AR1068) for 10 minutes on ice followed by 10 minutes at room temperature. The cells were washed three times with PBS, then blocked with 0.5 mL 5% goat serum (Vector Laboratories #101098-382) in PBS for 15 minutes. After the blocking agent was aspirated from the cells, 1 μg/ml anti-Myc polyclonal antibody (Sigma-Aldrich #C-3956) in 5% goat serum was added for 1 hour. […] Primary antibody was aspirated away, and then cells washed 5 times with PBS. Next, cells (including background controls) were incubated with 1:1000 goat anti rabbit antibody secondary antibody (Abcam #Ab97051) in 5% Goat serum for 30 minutes at room temperature. After washing, cells were incubated with 400 μL of TMB (Thermo Scientific #PI34029) for 5 minutes, then 200 μL of 1N HCL (Avantor Performance #JT5620-2) was added to stop the reaction. 100 μL of the sample was transferred to a 96 well plate with duplicates transferred for each condition. Samples were read at 450 nm on a SpectraMax plate reader. […] The fold changes were plotted on GraphPad Prism and presented as mean (SEM) of the technical replicates. Statistical significance was determined using unpaired T-tests comparing samples treated with Gal3 and insulin with all other conditions.

T1 sequence (P17931 whole entry): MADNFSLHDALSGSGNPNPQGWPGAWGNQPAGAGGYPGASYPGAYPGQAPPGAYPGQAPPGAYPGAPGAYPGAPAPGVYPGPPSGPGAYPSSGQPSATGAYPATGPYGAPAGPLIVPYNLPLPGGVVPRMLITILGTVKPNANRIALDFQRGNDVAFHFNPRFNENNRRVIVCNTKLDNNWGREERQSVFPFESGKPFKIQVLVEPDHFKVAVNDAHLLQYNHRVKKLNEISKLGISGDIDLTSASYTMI

B1: 849.2D7: anti-Gal3 antibody (antibody, V domains shown)
VH: QVQLQQSGPQLVRPGASVKISCKASGYSFTNYWMHWVKQRPGQGLEWIGMIDPSDSETRLNQKFKDKATLTVDKSSSTAYMQLSSPTSEDSAVYYCATGRPDYWGQGTTLTVSS
VL: DIVMTQSHKFMSTSVGDRVSITCKASQDVSTAVAWYQQKPGQSPKLLIYWASTRHTGVPDRFTGSGSGTDYTLTISSVQAEDLALYYCQQHYSTPYTFGGGTKLEIK
epitope bin (mutual competitive binding for Gal3) (human Gal3): 10 | binding to any of the tested Gal3 peptides (Human Gal3 peptides): not found to bind

B2: 847.20H7: anti-Gal3 antibody (antibody, V domains shown)
VH: QVQLQQSGAELVRPGASVNLSCKASGYTFTNYWMNWVKQRPGQGLEWVGMIDPSDSETHYNQMFKDKATLTIDKSSSIAYMQLSSLTSEDSAVYYCARWGAMDYWGQGTSVTVSS
VL: DIVMTQSHKIMSTSVGDRVSITCKASQDVSTTVAWFQQKPGQSPKLLLYWASTRHTGVPDRFTGSGSGTDYTLTISSVQAEDLALYYCQQHYSPPFTFGSGTKLEIK
binding to any of the tested Gal3 peptides (Human Gal3 peptides): not found to bind

B3: 846T.4C9: anti-Gal3 antibody (antibody, V domains shown)
VH: EVQLQQSGPELVKPGASVKMSCKASGYSFTNYIMHWVKQKPGQGLEWIGYINPYNDGTKYNEKFKGKATLTSDKSSSTAYMELSSLTSEDSAVYYCARLLFYYAMDYWGQGTSVTVSS
VL: DILMTQTPSSMSVSLGDTVSITCHASQGISSNIGWLQQKPRKSFKGLIYYGTNLEDGVPSRFSGSGSGADYSLTISSLESEDFADYYCVQYDQFPWTFGGGTKLEIK
binding to hGAL3 when immobilized on HC200M chip (human Gal3): not bind | binding to any of the tested Gal3 peptides (Human Gal3 peptides): not found to bind

B4: 2D10-hVH4-HVL1: anti-Gal3 antibody, VH SEQ ID NO: 806, VL SEQ ID NO: 821 (antibody, V domains shown)
VH: QVQLVQSGAEVKKPGASVKVSCKASGYTFTDYYINWVRQAPGQRLEWMGWIYPGSQDTKYNEKFQGRVTLTVDTSASTAYMELSSLRSEDTAVYFCANYFGSSGWFFDVWGQGTMVTVSS
VL: DIVMTQSPLSLPVTPGEPASISCRSSKSLLHSDGITYLYWYLQKPGQSPQLLIYRMSNRASGVPDRFSGSGSGTDFTLKISRVEAEDVGVYYCAQMIEFPLTFGQGTKLEIK
modifications: VH-80 Peptide Sequence; VL-78 Peptide Sequence
effect on Gal3 block of insulin-stimulated GLUT4 translocation [1]: reduce the ability of Gal3 to block GLUT4 translocation

B5: 849.5H1: anti-Gal3 antibody (antibody, V domains shown)
VH: QVQLKESGPVLVAPSQSLSITCTVSGFSLTSYGIHWVRQPPGKGLEWLGVIWAGGSTNYNSALMSRLSISKDNSKSQVFLKMNSLQIDDTAMYYCAKPPHDYDQAWFAYWGQGTLITVSA
VL: DIQMNQSPSSLSASLGDTITITCHASQNINVWLSWYQQKPGNIPKLLIYQASNLHTGVPSRFSGRGSGTGFTLTISSLQPEDIATYYCQQGQSSPFTFGSGTKLEIK
epitope bin (mutual competitive binding for Gal3) (human Gal3): 21 | binding to any of the tested Gal3 peptides (Human Gal3 peptides): not found to bind

B6: 847.16D10: anti-Gal3 antibody (antibody, V domains shown)
VH: QVQLQQSGAELVRPGASVKLSCKASGYTFTGYWLNWVKQRPGQGLEWIGMIDPSDSETHYNQVFKDKATMTVDRSSSTAYMQLSGLTSEDSAVYYCANSNYASGSWGQGTTLTVSS
VL: QAVVTQESALTTSPGETVTLTCRSSTGAVTTSNYANWDQEKPDHLFTGLIGGTNNRAPGVPARFSGSLIGDKAALTITGAQTEDEAIYFCALWYSNHLVFGGGTKVTVL
epitope bin (mutual competitive binding for Gal3) (human Gal3): CRD | binding to any of the tested Gal3 peptides (Human Gal3 peptides): not found to bind

— patent US20220411514A1, “ANTI-GAL3 ANTIBODIES AND METHODS OF USE FOR INSULIN RESISTANCE” (TrueBinding, Inc., priority 2021, published 2022)
